{"source": "patent US6495317B1", "about": "“DNA encodingmannose 6-phosphate reductase and recombinants produced therefrom” (Board of Trustees of Michigan State University, priority 1996, dated 2002)", "molecules": {"B1": {"name": "Recombinant M6PR: mannose 6-phosphate reductase purified from IPTG-induced E. coli clone D carrying celery cDNA (SEQ ID NO:2) (protein)", "chain": "MAITLNSGFKMPVLGLGVWRMDRNEIKNLLLSAINLGYRHFDCAADYKNELEVGEAFKEAFDTDLVKREDLFITTKLWNSDHGHVIEACKNSLKKLQLEYLDLYLIHFPMASKHSGIGTTRSILDDEGVWEVDATISLEATWHEMEKLVEMGLVRSIGISNYDVYLTRDILSYSKIKPAVNQIETHPYFQRDSLIKFCQKYGIAITAHTPLGGALANTERFGSVSCLDDPVLKKLSDKHNKSPAQIVLRWGVQRNTIVIPKSSKTKRLEENINIFDFELSKEDMELIKTMERNQRSNTPAKAWGIDVYA"}}, "key": {"[1]": {"tested_on": "mannose 6-phosphate reductase (M6PR)", "assay": "Kinetic characterization of purified M6PR (mannose 6-phosphate and NADPH kinetics)", "assay_type": "biochemical, celery (Apium graveolens)", "settings": "30° C., 33 mM Tris-HCl pH 7.5, 3 mM DTT; for Km: read-out: km", "from_the_text": "Subsequent purification steps were essentially as described in Loescher et al., Plant Physiol. 98:1396-1402 (1992) except for Reactive Yellow 86 (RY86) chromatography. Here the active fraction from the gel filtration step was split in two, and each fraction run separately on the RY86 column as described in Loescher et al., Plant Physiol. 98:1396-1402 (1992). The active fractions were pooled and either diluted by the addition of 0.5 v of column buffer or desalted using centrifugal concentrating devices (30 kD cut-off membranes) and washed with 2 volumes of column buffer. This step was performed to dilute or remove NADPH. The sample was then loaded back onto the RY86 column and activity eluted in a linear gradient between 0 and 0.2 mM NADPH in column buffer. The purified M6PR was desalted and concentrated using centrifugal filtration and was either used immediately for kinetic characterization or stored at −21° C. after adding glycerol (1:1, v:v)."}, "[2]": {"tested_on": "mannose 6-phosphate reductase (M6PR)", "assay": "M6PR activity assay (NADPH oxidation), specific activity of purified enzyme", "assay_type": "biochemical, celery (Apium graveolens)", "description": "Three putative M6PR and one non-positive clone (as determined by antibody screening) were tested for M6PR activity. Duplicate 10 ml cultures of each clone were grown in LB+ampicillin (amp; […]). Once an average OD600 of 0.5 had been attained one culture of each pair was induced by the addition of isopropyl-β-D-thiogalactopyranoside (IPTG; final concentration 10 mM). […] Cultures were maintained at 30° C. for a further 3 h and were harvested at an average OD600 of 1.29±0.02. Cells were pelleted by centrifugation (2000×g for 5 min) and washed twice by resuspending the pellets in 5 ml Tris (100 mM, pH 7.5) containing […], with a centrifugation step between each wash. After the final wash pelleted cells were maintained on ice. Just prior to disruption the cells were resuspended in 4 ml of extraction buffer (100 mM Tris-HCl pH 7.5, […], 10 mM DTT and 0.1% Triton X-100) and transferred to blood dilution vials (American Scientific Products, McGaw Park, Ill.). Cells were ruptured by suspending the vial containing the cells 0.5 cm above the cuphorn probe of a Heat Systems W-385 sonicator (Misonics Farmingdale, N.Y.) and subjecting them to 2 minutes sonication at full power. Coolant was circulated around the vial to maintain the temperature at approximately 4° C. After sonication, 1.5 ml aliquots of the homogenate were centrifuged at 13,000×g for 5 minutes at 4° C. […]"}}, "note": "Where two headings read alike, the source gives them in different places.", "data": [{"molecule": "B1", "values": [{"measurement": "Vmax; NADPH", "setting": "[1]; 9 NADPH concentrations 1-50 μM, mannose 6-phosphate 12 mM", "result": "6.0 ± 2.3 (2;3) μmol mg prot^−1 min^−1"}, {"measurement": "Km", "setting": "[1]; 9 NADPH concentrations 1-50 μM, mannose 6-phosphate 12 mM, NADPH", "result": "0.0062 ± 0.0024", "unit": "mM"}, {"measurement": "Vmax; mannose 6-P", "setting": "[1]; 12 M6P concentrations 1-50 mM, saturating NADPH 200 μM", "result": "8.0 ± 1.9 (4;6) μmol mg prot^−1 min^−1"}, {"measurement": "Km", "setting": "[1]; 12 M6P concentrations 1-50 mM, saturating NADPH 200 μM, mannose 6-P", "result": "10.1 ± 1.4", "unit": "mM"}, {"measurement": "average specific activity of the purified enzyme", "setting": "[2]; average of three preparations, 1 mU = 1 nmol NADPH oxidized per minute", "result": "3926±833", "unit": "mU/mg protein"}, {"measurement": "specific activity of the purified enzyme", "setting": "[2]; final two preparations", "result": "4441±13", "unit": "mU/mg"}]}]}
